Experimental data published in patent US6329500A, “Transforming growth factor-β binding site” (University of Virginia Patent Foundation, priority 1999, dated 2001).
Values belong to the molecule of their own block, whether it stands above or below them.

How the values were obtained:
FBHE cells = assay: Endothelial cell proliferation assay, TGF-β alone; format: cell-based, bovine; settings: TGF-β 10 pM, 1 h pulse
Protocol: (§1) Fetal bovine heart endothelial (FBHE) cells were cultured in DMEM supplemented with 10% FBS, 20 ng/ml acidic fibroblast growth factor, and 80 ng/ml basic fibroblast growth factor and passaged at subconfluence with trypsin-EDTA. To perform proliferation assays, the cells were plated at a density of 2×10^4 /well (24 well plates) in DMEM supplemented with 0.2% FBS. […] The fusion proteins were preincubated with the TGF-β for 15 min prior to addition to the cultures. At the completion of an incubation, the cultures were washed 3 times with serum-free DMEM and then allowed to incubate in DMEM with 0.2% FBS for 30 h. [^3 H]Thymidine was added for an additional 18 h; the cells were then harvested and [^3 H]thymidine incorporation was quantitated.

TGF-β2 [1] = biological target: T1, TGF-β2 (Homo sapiens, UniProt P61812); assay: Ligand blot analysis of 125I-TGF-β2 binding to PVDF-immobilized proteins; settings: SDS-PAGE, PVDF membrane, 125I-TGF-β2 20 pM, 2 h at 25° C.
T1 construct: purchased Genzyme (Cambridge, Mass.)
T1 sequence (P61812 303-414 limits assumed): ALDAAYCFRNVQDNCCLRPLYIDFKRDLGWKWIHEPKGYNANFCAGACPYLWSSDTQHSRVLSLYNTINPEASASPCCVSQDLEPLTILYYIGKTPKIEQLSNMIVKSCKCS
Protocol: To block free sulfhydryls, some samples were treated with 5 mM IAM for 2 h at 25° C. Equivalent amounts of each protein ([…]) were subjected to SDS-PAGE on 10% slabs. IAM-treated GST-α2 M-peptide fusion proteins were subjected to SDS-PAGE as well. All samples were electro-transferred to PVDF membranes. The membranes were blocked with 5% milk and 0.1% Tween 20 in PBS for 12 h at 4° C. and then rinsed with 0.1% Tween 20 in PBS (PBS-T). […] Biophys. Res. Commun. […] NGF-β was radioiodinated with Iodogen, to a specific activity of 2-5 μCi/μg, using the method recommended by the manufacturer. […] After washing the membranes with PBS-T, bound radioligands were detected by Phosphorlmager analysis.

TGF-β1 [2] = biological target: T2, TGF-β1 (Homo sapiens, UniProt P01137); settings: read-out: KD for TGF-β1 (either TGF-β isoform); cited from earlier work
T2 construct: purchased R&D Systems (Minneapolis, Minn.)

TGF-β2 [3] = biological target: T1, TGF-β2; settings: read-out: KD for TGF-β2 (either TGF-β isoform); cited from earlier work
TGF-β1 [4] = biological target: T2, TGF-β1; assay: Endothelial cell proliferation assay, neutralization of TGF-β1 by fusion proteins; format: cell-based
Protocol: as §1

RAW 264.7 cells = assay: NO synthesis (nitrite in conditioned medium) by RAW 264.7 cells; format: cell-based, murine; settings: 250 nM, SFM, 24 h
Protocol: NO synthesis by RAW 264.7 cells was quantitated by measuring the stable NO oxidation product, nitrite, in conditioned medium, as previously described (Anal. Biochem. 126, 131-138 (1982)). […] The fusion proteins were purified and detergent-free. After 24 h, conditioned medium (100 μl) was recovered and nitrite was measured. […] Biol, Chem. 270, 21919-21927 (1995)). The α2 M-induced increase in RAW 264.7 cell NO synthesis is inhibited by the NOS inhibitor, N^G -monomethyl-L-arginine.

TGF-β2 [5] = biological target: T1, TGF-β2; assay: Endothelial cell proliferation assay, neutralization of TGF-β2 by fusion proteins; format: cell-based
Protocol: as §1

TGF-β2 [6] = biological target: T1, TGF-β2; assay: 125I-TGF-β2 binding to immobilized α2M-MA, solution-phase competition; settings: increasing concentrations (4-250 nM)
Protocol: The wells were washed three times with PBS-T and blocked with PBS-T for 16 h at 4° C. […] In the presence of a fusion protein (FP) which binds TGF-β, the total concentration of TGF-β [βT ] was related to [βF ], at equilibrium, as follows: [βT ]=[βF ](1+[FP]/KI).

TGF-β2 [7] = biological target: T1, TGF-β2; assay: Binding of 125I-TGF-β2 to FP3 and FP4 in solution as determined by FPLC on Superose-12; settings: fusion protein 0.5 μM, 125I-TGF-β2 0.5 nM, 30 min 37° C., n=2
Protocol: The flow rate was 0.4 ml/min. […] To calibrate the FPLC, the following proteins were subjected to chromatography on the same column: soybean trypsin inhibitor (Mr~21,500, Ve of 14.1 ml), ovalbumin (Mr~45,000, Ve of 12.9 ml), BSA (Mr~66,000, Ve of 12.1 ml), and BSA dimer (Mr~132,000, Ve of 10.9 ml).

B1: TGF-β2: transforming growth factor-β2 from Genzyme (protein, UniProt P61812 303-414, looked up)
Transforming growth factor …: ALDAAYCFRNVQDNCCLRPLYIDFKRDLGWKWIHEPKGYNANFCAGACPYLWSSDTQHSRVLSLYNTINPEASASPCCVSQDLEPLTILYYIGKTPKIEQLSNMIVKSCKCS
Decrease of [3H]thymidine incorporation (FBHE cells): 57%

125I-TGF-β2 binding, ligand blot (TGF-β2 [1]): did not bind
B2: FP1: GST-fusion protein with human α2M amino acids 122-415 (protein)
chain: KFRVVSMDENFHPLNELIPLVYIQDPKGNRIAQWQSFQLEGGLKQFSFPLSSEPFQGSYKVVVQKKSGGRTEHPFTVEEFVLPKFEVQVTVPKIITILEEEMNVSVCGLYTYGKPVPGHVTVSICRKYSDASDCHGEDSQAFCEKFSGQLNSHGCFYQQVKTKVFQLKRKEYEMKLHTEAQIQEEGTVVELTGRQSSEITRTITKLSFVKVDSHFRQGIPFFGQVRLVDGKGVPIPNKVIFIRGNEANYYSNATTDEHGLVQFSINTTNVMGTSLTVRVNYKDRSPCYGYQWVS
modifications: free sulfhydryls blocked with iodoacetamide (IAM)

125I-TGF-β2 binding, ligand blot (TGF-β2 [1]): only trace levels
B3: MUG: monomeric murine homologue of human α2M, purified from plasma of CD-1 female mice (protein)
chain: DSKYMVLVPSQLYTETPEKICLHLYQLNETVTVTASLVSQSGRKNLFDELVLDKDLFQCVSFIIPRLSSSDEEDFLYVDIKGPTHEFSKRKAVLVKNKESVVFVQTDKPVYKPGQSVKFRVVSMDKMLRPLNELLPLAYIEDPKKNRIMQWRDIKTENGLKQMSFSLAAEPIQGPYKIVVHKESGEKEEHSFTVMEFVLPRFNVDLKVPNAMSVNDEVLSVTACGKYTYGKPVPGHVKINVCRETETGCREVNSQLDNNGCSTQEVNITELQSKKRNYEVQLFHVNATVTEEGTGLEFSRSGTTKIERITNKLIFLKADSHFRHGIPFFVKVRLVDIKGDPIPNEKVFIKAQELSYTSATTTDQHGLAEFSIDTTCISGSSLHIKVNHKEEDSCSYFYCMEERHASAKHVAYAVYSLSKSYIYLDTETSSILPCNQIHTVQAHFILKGDLGVLKELIFYYLVMAQGSIIQTGNHTHQVEPGEAPVKGKFALEIPVEFSMVPMAKMLIYTILPDGEVIADSVNFEIEKCLRNKVDLRFSTSQSLPASQTRLQVTASPQSLCGLRAVDQSVLLLKPESELSPSWIYNLPGMQQNKFVPSSRLSEDQEDCILYSSWLAEKHTNLVPHGTEKDVYRYVEDMGLTAFTNLMIKLPIICFDYGMVPISAPRVEFDLAFTPEISWSLRTTLSKRPEEPPRKDPSSNDPLTETIRKYFPETWVWDIVTVNSTGLAEVEMTVPDTITEWKAGALCLSNDTGLGLSSVVPLQAFKPFFVEVSLPYSVVRGEAFMLKATVMNYLPTSMQMSVQLEASPDFTAVPVGDDQDSYCLSANGRHTSSWLVTPKSLGNVNFSVSAEAQQSSEPCGSEVATVPETGRKDTVVKVLIVEPEGIKQEHTFSSLFCASDAEISEKMSLVLPPTVVKDSARAHFSVMGDILSSAIRNTQNLLHMPYGCGEQNMVLFAPNIYVLKYLNETQQLTQKIKTKALGFLRAGYQRELNYKHKDGSYSAFGDQNGEREGNTWLTAFVLKSFAQARAFIFIDESHITHAFTWLSQKQKDNGCFRSSGSLFNNAMKGGVDDEMTLSAYITMALLESSLPATHPVVSKALSCLESSWKTIEQERNASFVYTKALMAYAFALAGNQNKRDEILKSLDEEAIKENNSIHWKRPQKSRKSEHHLYKPQASSAEVEMNAYVVLARLTAQPAPSPEDLTLSMSTIMWLTKQQNSNGGFSSTQDTVVALDALSKYGAVTFSRSQKTTLVTIQSTGSFSQKFQVENSNRLLLQQVALPDIPGDYTISVSGEGCVYAQTMLRYNMHLEKQLSAFAIWVQTVPLTCNNPKGHNSFQISLEISYTGSRPASNMVIADVKMLSGFIPLKPTVKKLERLEHVSRTEVSNNNVLIYLDQVTNQTLAFSFIIQQDIPVRNLQPAIVKVYDYYETDEMAFAEYSSPCSTDKQNV
Kd (TGF-β1 [2]): ~1000 nM
Kd (TGF-β2 [3]): ~1000 nM

[3H]thymidine incorporation (% control) (TGF-β1 [4]; FBHE cells, fusion protein (0.2 μM) + TGF-β1 (10 pM), 1 h pulse): 31 ± 4%
Effect on TGF-β1 activity in FBHE proliferation assay (TGF-β1 [4]; fusion protein 200 nM, TGF-β1 10 pM): No change in TGF-β activity
[3H]thymidine incorporation (% control) (TGF-β2 [5]; FBHE cells, fusion protein (0.2 μM) + TGF-β2 (10 pM), 1 h pulse): 38 ± 6%
Effect on TGF-β2 activity in FBHE proliferation assay (TGF-β2 [5]; fusion protein 200 nM, TGF-β2 10 pM): No change in TGF-β activity
Inhibition of 125I-TGF-β2 binding to immobilized α2M-MA (TGF-β2 [6]): did not inhibit
125I-TGF-β2 recovered (co-eluted) with the fusion protein (TGF-β2 [7]): 6%
125I-TGF-β2 binding, ligand blot (TGF-β2 [1]): did not bind
B4: FP4: GST-fusion protein with human α2M amino acids 798-1082 (protein)
chain: CIRVSVQLEASPAFLAVPVEKEQAPHCICANGRQTVSWAVTPKSLGNVNFTVSAEALESQELCGTEVPSVPEHGRKDTVIKPLLVEPEGLEKETTFNSLLCPSGGEVSEELSLKLPPNVVEESARASVSVLGDILGSAMQNTQNLLQMPYGCGEQNMVLFAPNIYVLDYLNETQQLTPEIKSKAIGYLNTGYQRQLNYKHYDGSYSTFGERYGRNQGNTWLTAFVLKTFAQARAYIFIDEAHITQALIWLSQRQKDNGCFRSSGSLLNNAIKGGVEDEVTLSAYI
modifications: free sulfhydryls blocked with iodoacetamide (IAM)
Nitrite production by RAW 264.7 cells (RAW 264.7 cells): did not increase nitrite production

125I-TGF-β2 binding, ligand blot (TGF-β2 [1]): did not bind
B5: FP5: GST-fusion protein with human α2M amino acids 1053-1302 (protein)
chain: DNGCFRSSGSLLNNAIKGGVEDEVTLSAYITIALLEIPLTVTHPVVRNALFCLESAWKTAQEGDHGSHVYTKALLAYAFALAGNQDKRKEVLKSLNEEAVKKDNSVHWERPQKPKAPVGHFYEPQAPSAEVEMTSYVLLAYLTAQPAPTSEDLTSATNIVKWITKQQNAQGGFSSTQDTVVALHALSKYGAATFTRTGKAAQVTIQSSGTFSSKFQVDNNNRLLLQQVSLPELPGEYSMKVTGEGCVYLQ
modifications: free sulfhydryls blocked with iodoacetamide (IAM)

125I-TGF-β2 binding, ligand blot (TGF-β2 [1]): did not bind
B6: FP2: GST-fusion protein with human α2M amino acids 364-613 (protein)
chain: RGNEANYYSNATTDEHGLVQFSINTTNVMGTSLTVRVNYKDRSPCYGYQWVSEEHEEAHHTAYLVFSPSKSFVHLEPMSHELPCGHTQTVQAHYILNGGTLLGLKKLSFYYLIMAKGGIVRTGTHGLLVKQEDMKGHFSISIPVKSDIAPVARLLIYAVLPTGDVIGDSAKYDVENCLANKVDLSFSPSQSLPASHAHLRVTAAPQSVCALRAVDQSVLLMKPDAELSASSVYNLLPEKDLTGFPGPLND
modifications: free sulfhydryls blocked with iodoacetamide (IAM)
